Reference: article PMC7417313

Tests used:
Experiment in all cases: SPR; His-tagged rH fragment held on a Ni-charged NTA chip (BIAcore X or 3000; 500-1,000 RU, reloaded for each injection), C3 protein injected in HBS-P (10 mM HEPES pH 7.4, 150 mM NaCl, 0.005% P20) at 5 μL/min, 25°C; reference cell with nickel only; equilibrium levels fitted to a one-site equation
[1] = target: full-length recombinant Factor H (human) (UniProt P08603)
[2] = target: recombinant Factor H fragment rH 1-6 (human)
[3] = target: recombinant Factor H fragment rH 17-20 (human)
[4] = target: recombinant Factor H fragment rH 19-20 (human)
[5] = target: recombinant Factor H fragment rH 16-20 (human)
[6] = target: recombinant Factor H fragment rH 18-20 (human)
[7] = target: recombinant Factor H fragment rH 1-7 (human)
[8] = target: recombinant Factor H fragment rH 1-8 (human)

Sequence of C3d (P01024 1002-1303): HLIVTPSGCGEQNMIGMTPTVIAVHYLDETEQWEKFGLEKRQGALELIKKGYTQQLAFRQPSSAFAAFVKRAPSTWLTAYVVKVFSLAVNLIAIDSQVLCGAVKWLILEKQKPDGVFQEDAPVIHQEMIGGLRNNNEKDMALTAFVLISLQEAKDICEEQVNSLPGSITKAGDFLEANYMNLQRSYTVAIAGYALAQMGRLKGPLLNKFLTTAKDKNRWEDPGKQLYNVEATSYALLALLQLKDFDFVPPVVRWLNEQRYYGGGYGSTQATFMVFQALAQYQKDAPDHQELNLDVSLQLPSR
Sequence of full-length recombinant Factor H (human) (P08603 19-1231): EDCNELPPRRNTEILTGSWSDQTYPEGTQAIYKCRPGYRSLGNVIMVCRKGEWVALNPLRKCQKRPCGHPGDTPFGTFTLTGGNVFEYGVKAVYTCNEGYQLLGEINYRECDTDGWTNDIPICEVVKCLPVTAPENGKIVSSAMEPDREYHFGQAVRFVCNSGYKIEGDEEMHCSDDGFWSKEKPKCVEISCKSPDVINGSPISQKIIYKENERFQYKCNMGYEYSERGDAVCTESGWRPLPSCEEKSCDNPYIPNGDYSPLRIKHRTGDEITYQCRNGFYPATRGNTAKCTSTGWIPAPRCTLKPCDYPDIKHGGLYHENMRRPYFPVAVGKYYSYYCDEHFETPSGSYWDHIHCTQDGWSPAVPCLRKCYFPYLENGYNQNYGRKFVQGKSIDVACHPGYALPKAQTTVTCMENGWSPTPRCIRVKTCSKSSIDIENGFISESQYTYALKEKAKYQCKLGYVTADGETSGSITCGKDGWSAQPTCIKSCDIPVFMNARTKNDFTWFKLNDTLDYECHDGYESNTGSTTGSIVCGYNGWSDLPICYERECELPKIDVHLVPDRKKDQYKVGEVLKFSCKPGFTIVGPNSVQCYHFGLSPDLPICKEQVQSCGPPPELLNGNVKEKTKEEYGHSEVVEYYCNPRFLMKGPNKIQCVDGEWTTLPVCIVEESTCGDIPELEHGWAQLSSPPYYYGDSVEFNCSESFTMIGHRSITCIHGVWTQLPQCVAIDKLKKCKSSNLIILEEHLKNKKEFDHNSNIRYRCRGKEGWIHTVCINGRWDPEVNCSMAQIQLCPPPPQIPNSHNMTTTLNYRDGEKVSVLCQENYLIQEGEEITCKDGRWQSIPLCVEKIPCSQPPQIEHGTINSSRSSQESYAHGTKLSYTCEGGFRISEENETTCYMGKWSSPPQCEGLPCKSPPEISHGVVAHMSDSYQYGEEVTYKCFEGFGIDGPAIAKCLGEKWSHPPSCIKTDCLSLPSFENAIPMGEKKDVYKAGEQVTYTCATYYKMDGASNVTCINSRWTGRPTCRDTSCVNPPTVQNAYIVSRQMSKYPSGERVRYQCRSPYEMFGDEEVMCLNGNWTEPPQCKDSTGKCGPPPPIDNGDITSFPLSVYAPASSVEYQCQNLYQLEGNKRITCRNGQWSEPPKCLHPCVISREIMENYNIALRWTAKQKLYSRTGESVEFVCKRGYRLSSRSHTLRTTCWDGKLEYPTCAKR

Substance: C3b (domain or fragment)
- Kd [1]: 95 nM
- Kd [2]: 80 nM
- Kd [3]: 2100 nM
- Kd [4]: 1700 nM
- Kd [5]: 2400 nM
- Kd [6]: 1900 nM
- Kd [7]: 80 nM
- Kd [8]: 150 nM

Substance: complement component C3 (native C3) (natural protein)
- Kd [2]: 400 nM

Substance: iC3b (domain or fragment)
- Kd [2]: 5000 nM
- Kd [4]: 2800 nM

Substance: C3d (from UniProt P01024 1002-1303) (domain or fragment)
- Kd [4]: 1900 nM
